The target of test [1] is recombinant chicken leptin binding domain (chLBD) (chicken). As to the kind of experiment: affinity for chLBD (method not given; compared with the SPR value of WT human leptin).
Test [2] concerns the target long form of human leptin receptor (human) (UniProt P48357). Nature of the test: cell-based or functional assay.
Test [3] deals with recombinant chicken leptin binding domain (chLBD) (chicken). Nature of the test: SPR (Biacore 3000), leptin amine-coupled to CM5 chip, soluble chLBD as analyte, 25 C, 1:1 Langmuir fit, mean of 2 experiments. For orientation: In SPR one partner is held on a chip, and binding of the other changes the refractive index at the surface.
Test [4] has as its target long form of human leptin receptor (human) (UniProt P48357). Nature of the test: radioreceptor competition assay against iodinated leptin, homogenate of BAF/3 cells with long form of human leptin receptor, average of two experiments.
Target sequence in this assay (P48357 22-1165 limits assumed, form in doubt): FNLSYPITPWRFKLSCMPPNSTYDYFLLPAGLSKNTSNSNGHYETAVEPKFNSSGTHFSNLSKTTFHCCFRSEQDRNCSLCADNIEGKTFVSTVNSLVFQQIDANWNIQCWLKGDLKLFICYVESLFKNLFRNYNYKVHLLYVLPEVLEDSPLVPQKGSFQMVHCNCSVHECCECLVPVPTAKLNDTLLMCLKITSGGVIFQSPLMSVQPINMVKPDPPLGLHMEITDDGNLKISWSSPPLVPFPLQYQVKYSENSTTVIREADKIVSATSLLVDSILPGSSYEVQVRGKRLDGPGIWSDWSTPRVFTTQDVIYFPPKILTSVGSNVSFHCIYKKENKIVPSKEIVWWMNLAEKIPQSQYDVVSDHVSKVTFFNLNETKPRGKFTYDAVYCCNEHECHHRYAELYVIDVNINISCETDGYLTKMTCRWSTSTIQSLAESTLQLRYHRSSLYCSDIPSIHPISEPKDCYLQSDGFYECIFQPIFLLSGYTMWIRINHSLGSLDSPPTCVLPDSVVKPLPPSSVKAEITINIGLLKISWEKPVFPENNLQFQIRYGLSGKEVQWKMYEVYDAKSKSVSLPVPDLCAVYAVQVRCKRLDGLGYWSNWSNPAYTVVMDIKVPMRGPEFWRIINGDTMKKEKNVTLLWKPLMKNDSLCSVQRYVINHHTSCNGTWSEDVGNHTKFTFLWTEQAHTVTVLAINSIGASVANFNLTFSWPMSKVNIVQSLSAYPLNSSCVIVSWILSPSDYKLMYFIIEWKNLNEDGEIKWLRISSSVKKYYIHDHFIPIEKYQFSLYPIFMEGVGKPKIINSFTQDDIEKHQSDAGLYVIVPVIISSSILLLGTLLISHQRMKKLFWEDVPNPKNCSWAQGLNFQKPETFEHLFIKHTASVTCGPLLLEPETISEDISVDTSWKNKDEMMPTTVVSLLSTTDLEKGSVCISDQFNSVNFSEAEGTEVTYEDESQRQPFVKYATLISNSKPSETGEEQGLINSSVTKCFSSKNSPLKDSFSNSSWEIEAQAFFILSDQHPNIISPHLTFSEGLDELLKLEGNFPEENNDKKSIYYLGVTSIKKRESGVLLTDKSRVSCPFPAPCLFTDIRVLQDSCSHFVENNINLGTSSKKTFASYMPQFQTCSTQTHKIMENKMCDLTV
The target is the same in test [5]. As to the kind of experiment: radioreceptor assay, homogenate from 1.75x10^6 BAF/3 cells with human leptin receptor per tube.
Target sequence in this assay (P48357 22-1165 limits assumed, form in doubt): as above

Consider 4 substances from patent publication US20060154859A1.

As for “human leptin S120A/T121A mutant (from UniProt P41159 22-167) (ligand)”, the Kd in test [1] was 29.5 nM. Also, in test [2], the IC50 for inhibition in the Baf/3 bioassay was 165 nM and the IC50 for inhibition in the Baf/3 bioassay, fold against L39A/D40A/F41A or L39A/D40A/F41A/I42A came to 150 fold.

On to “wild-type (WT) human leptin, recombinant (from UniProt P41159 22-167) (ligand)”, for which, in test [3], the Kd was 28.8 nM, the koff was found to be 0.0043 s⁻¹ and the kon turned out to be 149000 M⁻¹ s⁻¹. In test [4], this substance gave an IC50 of 5.33 nM. The EC50 in Baf/3 bioassay (proliferation of BAF/3 cells transfected with the long form of human leptin receptor, MTT) in test [2] was 0.022 nM. Also, the specific binding in test [5] fell in the range of 6 to 7%.

On to “human leptin L39A/D40A/F41A/I42A/S120A/T121A mutant (from UniProt P41159 22-167) (ligand)”, for which the Kd in test [1] turned out to be 26.9 nM. For the same substance, the IC50 for inhibition in the Baf/3 bioassay in test [2] came out at 14.3 nM.

As for “wild-type (WT) ovine leptin, recombinant (from UniProt Q28603 1-146) (ligand)”, in test [3], the Kd was found to be 22.8 nM, the koff turned out to be 0.0037 s⁻¹ and the kon stood at 162000 M⁻¹ s⁻¹. The IC50 in test [4] is 1.47 nM. This substance registered an EC50 in Baf/3 bioassay (proliferation of BAF/3 cells transfected with the long form of human leptin receptor, MTT) in test [2] of 0.037 nM.

A word on the Kd: it is the concentration at which binding is half-saturated. By koff is commonly meant the rate constant with which the complex falls apart. As a reminder, the kon is the second-order rate constant of association. A word on the IC50: it is the point on the concentration scale where inhibition reaches its midpoint.
